The text below walks through data of patent US20220249563A1 (LEGEND BIOTECH IRELAND, published 2022).

T1: extracellular domain of human DLL3 protein (aa27-466) having an N-terminal FLAG tag (AdipoGen, AG-40B-0151) (human, UniProt Q9NYJ7 27-466)
T1 construct: range 27-466; also called DLL3 ECD protein
T1 sequence (looked up): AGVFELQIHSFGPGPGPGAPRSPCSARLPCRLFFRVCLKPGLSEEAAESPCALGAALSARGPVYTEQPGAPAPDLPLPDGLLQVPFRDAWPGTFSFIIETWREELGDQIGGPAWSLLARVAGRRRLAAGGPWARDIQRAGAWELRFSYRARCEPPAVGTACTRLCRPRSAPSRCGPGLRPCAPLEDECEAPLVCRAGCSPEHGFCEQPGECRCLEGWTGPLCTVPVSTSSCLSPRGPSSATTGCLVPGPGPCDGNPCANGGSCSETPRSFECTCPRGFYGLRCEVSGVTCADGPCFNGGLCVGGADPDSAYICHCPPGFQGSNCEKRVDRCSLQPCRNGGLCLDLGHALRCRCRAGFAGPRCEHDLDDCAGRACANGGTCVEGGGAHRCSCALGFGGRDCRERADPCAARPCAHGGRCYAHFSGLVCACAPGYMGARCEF

B1: AS64511VH6 HCAb (Fc fusion, not shown: a dimerising Fc or GST)
chain: EVQLVESGGGLVQPGGSLRLSCAASRATYSTNYISWFRQAPGKGREAVATITTGDGETAYADSVKGRFTISRDNAKNSVYLQMNSLRAEDTAMYYCAANLRIGGDWFDGRDFRAWGQGTLVTVSS
notes: humanized sdAb fused with human IgG1 hinge and Fc (humanized HCAb), crude HEK293 medium
B2: AS64511VH4 HCAb (Fc fusion, not shown: a dimerising Fc or GST)
chain: EVQLVESGGGLVQPGGSLRLSCAASRATYSTNYISWFRQAPGKGLEAVATITTGDGETAYADSVKGRFTISRDNAKNSLYLQMNSLRAEDTAVYYCAANLRIGGDWFDGRDFRAWGQGTLVTVSS
notes: as for B1
B3: AS64511VH5 HCAb (Fc fusion, not shown: a dimerising Fc or GST)
chain: EVQLVESGGGLVQPGGSLRLSCAASRATYSTNYISWFRQAPGKGLEAVATITTGDGETAYADSVKGRFTISRDNAKNSVYLQMNSLRAEDTAMYYCAANLRIGGDWFDGRDFRAWGQGTLVTVSS
notes: as for B1
B4: AS64511 HCAb (Fc fusion, not shown: a dimerising Fc or GST)
chain: QVQLVESGGGSVQAGGSLRLSCAASRATYSTNYISWFRQAPGKEREAVATITTGDGETAYADSVKGRFTISRDNAKNTVYLQMNSLKPEDTAMYYCAANLRIGGDWFDGRDFRAWGQGTQVTVSS
notes: camel sdAb fused with human IgG1 hinge and Fc (chimeric HCAb), crude HEK293 medium
B5: AS63997 HCAb (Fc fusion, not shown: a dimerising Fc or GST)
chain: QVRLVESGGGSVQAGGSLRLSCAGSFSGYGVSTMAWFRQAPGKEREGVAAITVGSGNTYYADSVKGRFTISRDNAKRTVFLQMNSLKPEDTAMYYCAVGYLSGGSWDVPGRYNYWGQGTQVTVSS
notes: as for B4
B6: AS63997VH5 HCAb (Fc fusion, not shown: a dimerising Fc or GST)
chain: QVQLVESGGGVVQPGGSLRLSCAASFSGYGVSTMAWFRQAPGKGLEGVAAITVGSGNTYYADSVKGRFTISRDNSKNTVYLQMNSLRAEDTAMYYCAVGYLSGGSWDVPGRYNYWGQGTLVTVSS
notes: as for B1
B7: AS63997VH6 HCAb (Fc fusion, not shown: a dimerising Fc or GST)
chain: QVQLVESGGGVVQPGGSLRLSCAASFSGYGVSTMAWFRQAPGKGREGVAAITVGSGNTYYADSVKGRFTISRDNSKNTVYLQMNSLRAEDTAMYYCAVGYLSGGSWDVPGRYNYWGQGTLVTVSS
notes: as for B1
B8: AS63997VH4 HCAb (Fc fusion, not shown: a dimerising Fc or GST)
chain: QVQLVESGGGVVQPGGSLRLSCAASFSGYGVSTMAWFRQAPGKGLEGVAAITVGSGNTYYADSVKGRFTISRDNSKNTLYLQMNSLRAEDTAVYYCAVGYLSGGSWDVPGRYNYWGQGTLVTVSS
notes: as for B1
B9: AS64380VH7 HCAb (Fc fusion, not shown: a dimerising Fc or GST)
chain: EVQLVESGGGLVQPGGSLRLSCAASGNTYSSNYMGWFRQAPGKGREEVAVIYTRGGHTYYVDSVRGRFTISQDNAKNSVYLQMNSLRAEDTAMYYCAASSRHRLGLNNPRDYDYWGQGTLVTVSS
notes: as for B1
B10: AS64380VH4 HCAb (Fc fusion, not shown: a dimerising Fc or GST)
chain: EVQLVESGGGLVQPGGSLRLSCAASGNTYSSNYMGWFRQAPGKGLEEVAVIYTRGGHTYYVDSVRGRFTISRDNAKNSLYLQMNSLRAEDTAVYYCAASSRHRLGLNNPRDYDYWGQGTLVTVSS
notes: as for B1
B11: AS64380VH6 HCAb (Fc fusion, not shown: a dimerising Fc or GST)
chain: EVQLVESGGGLVQPGGSLRLSCAASGNTYSSNYMGWFRQAPGKGLEEVAVIYTRGGHTYYVDSVRGRFTISQDNAKNSVYLQMNSLRAEDTAMYYCAASSRHRLGLNNPRDYDYWGQGTLVTVSS
notes: as for B1
B12: AS64380VH5 HCAb (Fc fusion, not shown: a dimerising Fc or GST)
chain: EVQLVESGGGLVQPGGSLRLSCAASGNTYSSNYMGWFRQAPGKGLEEVAVIYTRGGHTYYVDSVRGRFTISQDNAKNSLYLQMNSLRAEDTAVYYCAASSRHRLGLNNPRDYDYWGQGTLVTVSS
notes: as for B1
B13: AS64380 HCAb (Fc fusion, not shown: a dimerising Fc or GST)
chain: EVQLVESGGGSVQAGGSLTLSCEASGNTYSSNYMGWFRQAPGKEREEVAVIYTRGGHTYYVDSVRGRFTISQDNAKNTVYLQMNSLKPEDTAMYYCAASSRHRLGLNNPRDYDYWGQGTQVTVSS
notes: as for B4
B14: AS64062 HCAb (Fc fusion, not shown: a dimerising Fc or GST)
chain: QVRLVESGGGSVQVGGSLRLSCAASRSPYSSSRCMGWFRQAPGKEREGVAALYTGGGSTSYADSVKGRFTISQDNAKNTVYLQMNSLKPEDTAMYYCAAVVPRGGSCRLDERGYYHWGQGTQVTVSS
B15: AS63931 HCAb (Fc fusion, not shown: a dimerising Fc or GST)
chain: EVQLAESGGGSVQAGGSLRLSCAGSFSGYGVSTMAWFRQAPGKEREGVAAITVGSGNTYYADSVTGRFTISRDNAKRTVYLQMNSLKPEDTAMYYCAAGWLSGGSWHVPGRYNYWGQGTQVTVSS
B16: AS69443 HCAb (Fc fusion, not shown: a dimerising Fc or GST)
chain: EVQLAESGGGSVQAGGSLRLSCSASGFTFDDSDMAWYRQAPGDGCDLVSTISSDGSTYYADSVKGRFTISQDNAKNTVYLQMHSLKPEDTAVYYCAADFLTGFYYSDSPHPAPCSASDFGYWGQGTQVTVSS
B17: AS64052 HCAb (Fc fusion, not shown: a dimerising Fc or GST)
chain: QVHLMESGGGSVQAGGSLRLSCAASGYTYRSNFMGWFRQAPGKEREGIATIHSGVATTYYADSVKGRFTISQDNAKNTVYLQMNSLKPEDTAMYYCAAGGPPANADRWYPLRPPGYNYWGQGTQVTVSS
B18: AS64617 HCAb (Fc fusion, not shown: a dimerising Fc or GST)
chain: QVQLVESGGGSVQAGGSLRLSCAASGYTDRCSMAWYRQAPGKERELVSRISTSGFTNYAASVKGRFTISQDNAKNTVYLQMNSLNPGDTGMYYCAIIVGRTCSLNYWGNGILVTVSS
B19: AS64047 HCAb (Fc fusion, not shown: a dimerising Fc or GST)
chain: QVHLVESGGGSVQAGGSLRLSCAASQYVYRWDLMGWFRQAPGKEREAVAAVYTGDGITYYADSVKGRFSISQDNAKNTVYLQMNSLKPEDTGMYFCAAGFVSGGRWNQSYRYKYWGQGTQVTVSS

For one experiment, the target named is T1, extracellular domain of human DLL3 …. As to the kind of experiment: SPR (Biacore), HCAb captured by anti-human Fc, human DLL3 as analyte, 1:1 fit. The source says: (§1) The camel and humanized sdAb sequences were fused with human IgG1 hinge and Fc, resulting the chimeric and humanized HCAb sequences. The DNAs encoding these HCAbs were synthesized and inserted into pTT5 vector. HCAb expression plasmids were used to transfect HEK293 cells. Crude HCAb proteins secreted to the medium were subjected to SPR affinity measurement as follows: briefly, capturing antibody anti-human Fc pAb (GE healthcare) was immobilized on a Biacore™ CM5 chip to approximately 6,000 RU using EDC-activated amine coupling chemistry. HCAb of interest was captured for 300 seconds onto the sensorchip surface. Human DLL3 (AdipoGen, AG-40B-0151) was flowed over the sensorchip surface at a series of increasing concentrations. Association and dissociation phases were monitored. Captured antibody and antigen were removed between cycles using 10 mM Glycine-HCl, pH 2.0 buffer in order to ensure a fresh binding surface for the antigen. The resulting sensorgrams were fit globally using a 1:1 binding model in order to calculate on- and off-rates (ka and kd, respectively), as well as affinities (KD).
Background: Surface plasmon resonance follows binding to a sensor surface in real time, without labels.
For orientation: Kd means the constant that tells how readily two partners part at equilibrium. The low end stands for tighter binding, the high end for weaker binding. As a reminder, the koff is the first-order rate constant of dissociation. Lower therefore signals slow dissociation. One may read the kon as a measure of how fast the partners come together. B1 returned a Kd of 3.4 nM, a koff of 0.00048 s⁻¹ and an on-rate (kon) of 140000 M⁻¹ s⁻¹.
B2 showed a Kd of 6 nM, a koff of 0.00094 s⁻¹ and a kon of 160000 M⁻¹ s⁻¹.
The corresponding values for B3 are 2.9 nM, 0.00047 s⁻¹ and 160000 M⁻¹ s⁻¹.
The like results for B4 were, in that order, 3 nM, 0.0004 s⁻¹ and 130000 M⁻¹ s⁻¹.
The like results for B5 were, in that order, 16 nM, 0.0064 s⁻¹ and 390000 M⁻¹ s⁻¹.
As to B6, the Kd was 37 nM, the koff turned out to be 0.021 s⁻¹ and the kon stood at 580000 M⁻¹ s⁻¹.
The like results for B7 were, in that order, 33 nM, 0.06 s⁻¹ and 1.8e+06 M⁻¹ s⁻¹.
On to B8, for which the Kd is 21 nM, the koff was 0.018 s⁻¹ and the kon turned out to be 840000 M⁻¹ s⁻¹.
The like results for B9 were, in that order, 45 nM, 0.0015 s⁻¹ and 32000 M⁻¹ s⁻¹.
The like results for B10 were, in that order, 14 nM, 0.0044 s⁻¹ and 310000 M⁻¹ s⁻¹.
The corresponding values for B11 are 17 nM, 0.0015 s⁻¹ and 88000 M⁻¹ s⁻¹.
Molecule B12 came in with a Kd of 26 nM, a koff of 0.0015 s⁻¹ and a kon of 59000 M⁻¹ s⁻¹.
The molecule B13 came in with a Kd of 8.4 nM, a koff of 0.0056 s⁻¹ and a kon of 670000 M⁻¹ s⁻¹.

Another experiment has the same target. As to the kind of experiment: SPR (Biacore), captured antibody, human DLL3 as analyte.
Excerpt: as §1
For the molecule B14, the Kd was 6.9 nM, the off-rate constant (koff) was found to be 0.00071 s⁻¹ and the kon was found to be 100000 M⁻¹ s⁻¹.
The corresponding values for B15 are 47 nM, 0.17 s⁻¹ and 3.6e+06 M⁻¹ s⁻¹.
The like results for B16 were, in that order, 0.96 nM, 9e-05 s⁻¹ and 94000 M⁻¹ s⁻¹.
The like results for B17 were, in that order, 4 nM, 0.00041 s⁻¹ and 100000 M⁻¹ s⁻¹.
The molecule B18 yielded a Kd of 20 nM, a koff of 0.0038 s⁻¹ and a kon of 190000 M⁻¹ s⁻¹.
The corresponding values for B19 are 6.7 nM, 0.00096 s⁻¹ and 140000 M⁻¹ s⁻¹.
